Results reported in article PMC11928522.

Legend:
[1] = target: T1, LPA66-BFP;MBP-GFP-MORF8 (diffuse) (Arabidopsis thaliana;Arabidopsis …, UniProt Q9FI80;Q9LKA5 35-515;1-395, |); assay: EMSA
T1 sequence 1: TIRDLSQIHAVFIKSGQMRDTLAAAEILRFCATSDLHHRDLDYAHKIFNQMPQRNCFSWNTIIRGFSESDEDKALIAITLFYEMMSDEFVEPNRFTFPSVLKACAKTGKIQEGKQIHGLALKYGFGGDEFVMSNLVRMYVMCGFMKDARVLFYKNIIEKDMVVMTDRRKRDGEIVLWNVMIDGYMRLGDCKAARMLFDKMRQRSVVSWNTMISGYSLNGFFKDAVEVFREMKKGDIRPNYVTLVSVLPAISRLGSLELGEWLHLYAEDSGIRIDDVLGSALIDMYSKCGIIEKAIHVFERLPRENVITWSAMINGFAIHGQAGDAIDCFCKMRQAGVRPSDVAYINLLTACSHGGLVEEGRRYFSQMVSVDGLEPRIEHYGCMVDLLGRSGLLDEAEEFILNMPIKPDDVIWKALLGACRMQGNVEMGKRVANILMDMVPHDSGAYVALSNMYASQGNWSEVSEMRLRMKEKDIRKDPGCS
T1 sequence 2: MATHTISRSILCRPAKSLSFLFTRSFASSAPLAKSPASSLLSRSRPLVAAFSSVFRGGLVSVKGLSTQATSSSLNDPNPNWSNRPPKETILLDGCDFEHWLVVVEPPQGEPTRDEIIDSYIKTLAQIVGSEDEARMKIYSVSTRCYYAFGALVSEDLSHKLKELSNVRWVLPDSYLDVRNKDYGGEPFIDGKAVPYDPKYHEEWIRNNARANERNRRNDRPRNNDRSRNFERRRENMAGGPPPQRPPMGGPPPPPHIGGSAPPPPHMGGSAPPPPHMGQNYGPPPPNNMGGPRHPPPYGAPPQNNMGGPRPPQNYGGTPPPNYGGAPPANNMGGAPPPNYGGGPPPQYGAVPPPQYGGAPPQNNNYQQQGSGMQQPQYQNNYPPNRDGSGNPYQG

[2] = target: T2, LPA66-BFP (Arabidopsis thaliana, UniProt Q9FI80 35-515); assay: EMSA after sedimentation
T2 sequence: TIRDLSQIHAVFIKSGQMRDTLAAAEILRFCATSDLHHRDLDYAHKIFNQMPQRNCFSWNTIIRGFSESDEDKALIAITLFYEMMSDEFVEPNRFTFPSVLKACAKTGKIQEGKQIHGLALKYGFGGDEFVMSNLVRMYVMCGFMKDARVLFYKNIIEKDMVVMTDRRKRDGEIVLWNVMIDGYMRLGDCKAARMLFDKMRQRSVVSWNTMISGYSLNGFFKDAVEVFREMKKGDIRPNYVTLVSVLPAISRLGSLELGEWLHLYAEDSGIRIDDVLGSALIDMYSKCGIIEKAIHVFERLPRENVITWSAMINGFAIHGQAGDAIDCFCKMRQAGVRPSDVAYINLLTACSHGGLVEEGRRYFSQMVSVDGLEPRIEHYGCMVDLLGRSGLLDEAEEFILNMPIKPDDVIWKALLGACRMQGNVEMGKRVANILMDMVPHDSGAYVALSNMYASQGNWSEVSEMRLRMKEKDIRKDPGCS

[3] = target: T3, GFP-MORF8 (condensates) (Arabidopsis thaliana, UniProt Q9LKA5 1-395); assay: condensate partitioning
T3 sequence: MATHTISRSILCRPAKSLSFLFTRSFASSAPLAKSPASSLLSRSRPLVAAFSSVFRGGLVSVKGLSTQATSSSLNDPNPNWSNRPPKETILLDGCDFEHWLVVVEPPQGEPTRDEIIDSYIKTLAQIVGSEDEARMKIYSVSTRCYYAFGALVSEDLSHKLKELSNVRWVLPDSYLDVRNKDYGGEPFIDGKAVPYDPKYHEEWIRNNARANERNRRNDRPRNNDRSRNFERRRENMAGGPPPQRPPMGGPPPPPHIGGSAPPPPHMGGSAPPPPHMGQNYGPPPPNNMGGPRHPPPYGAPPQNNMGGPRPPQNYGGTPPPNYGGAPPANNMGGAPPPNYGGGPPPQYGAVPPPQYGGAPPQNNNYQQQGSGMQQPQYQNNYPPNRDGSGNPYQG

Measured: binding result

B1: psbF RNA probe (ssRNA)
RNA: UAGCUGUACCUACCGUUUCUUUU
binds: all assays above
